The record followed here is the RNAGym collection of RNA variant scans (doi:10.1093/molbev/msab373).

B1: Azoarcus group I ribozyme (parent)
chain: GUGCCUUGCGCCGGGAAACCACGCAAGGGAUGGUGUCAAAUUCGGCGAAACCUAAGCGCCCGCCCGGGCGUAUGGCAACGCCGAGCCAAGCUUCGGCGCCUGCGCCGAUGAAGGUGUAGAGACUAGACGGCACCCACCUAAGGCAAACGCUAUGGUGAAGGCAUAGUCCAGGGAGUGGCGAAAGUCACACAAACCGG

The data set covers variants of B1. In words: reverse-splicing fitness (ratio to wild type); higher = more active; in vitro selection; Mg2+ level not given. A digest of the protocol: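 An in vitro group I ribozyme library with randomized positions was T7-transcribed and gel-purified. In triplicate, 10 pmol RNA in EPPS pH 7.5 was reacted with 50 pmoles of a 30-nt RNA substrate for 1 h at 37 °C across several added MgCl2 levels (1–48 mM), then stopped with EDTA. Products were reverse transcribed from a substrate-complementary primer, PCR-amplified and sequenced (HiSeq 4000). Fitness is a variant's read proportion after selection over that before, normalised to wild type.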
As to GUGCCUUGCGCCGGGAAACCACGCAAGGGAUGGUGUCAAAUUCGGCGAAACCUAAGCGCCCGCCCGGGCGUAUGGCAACGCAGAGCCAAGCUUCGGCGCCUGCGCCGAUGGAGGUGUAGUGACUAGACGGCACCCACCUAAGGCCAACGGUAUGGUGAAGGCAUAGUCCAGGGAGAGGCGAAAGUCACACAAACCGG [C82A A111G A120U A145C C150G U176A], the reverse-splicing fitness stood at 0.00295.
Under GUGCCUUGCGCCGGGAAACCACGCAAGGGAUGGUGUCAAAUUCGGCGAAACCUAAGCGCCCGCCCGGGCGUAUGGCAACGCAGAGCCAAGCUUCGGCGCCUGCGCCGAUGGAGGUGUAGUGACUAGACGGCACCCACCUAAGGCCAACGGUAUGGUGAAGGCAUAGUCCAGGGAGCGGCGAAAGUCACACAAACCGG [C82A A111G A120U A145C C150G U176C] stands 0.00393; under GUGCCUUGCGCCGGGAAACCACGCAAGGGAUGGUGUCAAAUUCGGCGAAACCUAAGCGCCCGCCCGGGCGUAUGGCAACGCAGAGCCAAGCUUCGGCGCCUGCGCCGAUGGAGGUGUAGUGACUAGACGGCACCCACCUAAGGCCAACGGUAUGGUGAAGGCAUAGUCCAGGGAGGGGCGAAAGUCACACAAACCGG [C82A A111G A120U A145C C150G U176G], 0.00262; under GUGCCUUGCGCCGGGAAACCACGCAAGGGAUGGUGUCAAAUUCGGCGAAACCUAAGCGCCCGCCCGGGCGUAUGGCAACGCAGAGCCAAGCUUCGGCGCCUGCGCCGAUGGAGGUGUAGUGACUAGACGGCACCCACCUAAGGCCAACGUUAUGGUGAAGGCAUAGUCAAGGGAGUGGCGAAAGUCACACAAACCGG [C82A A111G A120U A145C C150U C169A], 0.00248.
As to GUGCCUUGCGCCGGGAAACCACGCAAGGGAUGGUGUCAAAUUCGGCGAAACCUAAGCGCCCGCCCGGGCGUAUGGCAACGCAGAGCCAAGCUUCGGCGCCUGCGCCGAUGGAGGUGUAGUGACUAGACGGCACCCACCUAAGGCCAACGUUAUGGUGAAGGCAUAGUCCAGGGAGUGGCGAAAGUCACACAAACCGG [C82A A111G A120U A145C C150U], the reverse-splicing fitness came out at 0.0111.
As for GUGCCUUGCGCCGGGAAACCACGCAAGGGAUGGUGUCAAAUUCGGCGAAACCUAAGCGCCCGCCCGGGCGUAUGGCAACGCAGAGCCAAGCUUCGGCGCCUGCGCCGAUGGAGGUGUAGUGACUAGACGGCACCCACCUAAGGCCAACGUUAUGGUGAAGGCAUAGUCAAGGGAGCGGCGAAAGUCACACAAACCGG [C82A A111G A120U A145C C150U C169A U176C], the reverse-splicing fitness worked out at 0.00215.
With GUGCCUUGCGCCGGGAAACCACGCAAGGGAUGGUGUCAAAUUCGGCGAAACCUAAGCGCCCGCCCGGGCGUAUGGCAACGCAGAGCCAAGCUUCGGCGCCUGCGCCGAUGGAGGUGUAGUGACUAGACGGCACCCACCUAAGGCCAACGUUAUGGUGAAGGCAUAGUCAAGGGAGAGGCGAAAGUCACACAAACCGG [C82A A111G A120U A145C C150U C169A U176A], the reverse-splicing fitness is 0.00228.
As to GUGCCUUGCGCCGGGAAACCACGCAAGGGAUGGUGUCAAAUUCGGCGAAACCUAAGCGCCCGCCCGGGCGUAUGGCAACGCAGAGCCAAGCUUCGGCGCCUGCGCCGAUGGAGGUGUAGUGACUAGACGGCACCCACCUAAGGCCAACGGUAUGGUGAAGGCAUAGUCUAGGGAGCGGCGAAAGUCACACAAACCGG [C82A A111G A120U A145C C150G C169U U176C], the reverse-splicing fitness turned out to be 0.0028.
GUGCCUUGCGCCGGGAAACCACGCAAGGGAUGGUGUCAAAUUCGGCGAAACCUAAGCGCCCGCCCGGGCGUAUGGCAACGCAGAGCCAAGCUUCGGCGCCUGCGCCGAUGGAGGUGUAGUGACUAGACGGCACCCACCUAAGGCCAACGGUAUGGUGAAGGCAUAGUCUAGGGAGAGGCGAAAGUCACACAAACCGG [C82A A111G A120U A145C C150G C169U U176A]: the reverse-splicing fitness was found to be 0.00268.
With GUGCCUUGCGCCGGGAAACCACGCAAGGGAUGGUGUCAAAUUCGGCGAAACCUAAGCGCCCGCCCGGGCGUAUGGCAACGCAGAGCCAAGCUUCGGCGCCUGCGCCGAUGGAGGUGUAGUGACUAGACGGCACCCACCUAAGGCCAACGGUAUGGUGAAGGCAUAGUCUAGGGAGGGGCGAAAGUCACACAAACCGG [C82A A111G A120U A145C C150G C169U U176G], the reverse-splicing fitness was found to be 0.00231.
Take GUGCCUUGCGCCGGGAAACCACGCAAGGGAUGGUGUCAAAUUCGGCGAAACCUAAGCGCCCGCCCGGGCGUAUGGCAACGCAGAGCCAAGCUUCGGCGCCUGCGCCGAUGGAGGUGUAGUGACUAGACGGCACCCACCUAAGGCCAACGGUAUGGUGAAGGCAUAGUCUAGGGAGUGGCGAAAGUCACACAAACCGG [C82A A111G A120U A145C C150G C169U]: the reverse-splicing fitness is 0.00332.
GUGCCUUGCGCCGGGAAACCACGCAAGGGAUGGUGUCAAAUUCGGCGAAACCUAAGCGCCCGCCCGGGCGUAUGGCAACGCAGAGCCAAGCUUCGGCGCCUGCGCCGAUGGAGGUGUAGUGACUAGACGGCACCCACCUAAGGCCAACGGUAUGGUGAAGGCAUAGUCGAGGGAGUGGCGAAAGUCACACAAACCGG [C82A A111G A120U A145C C150G C169G]: the reverse-splicing fitness turned out to be 0.00351.
Consider GUGCCUUGCGCCGGGAAACCACGCAAGGGAUGGUGUCAAAUUCGGCGAAACCUAAGCGCCCGCCCGGGCGUAUGGCAACGCAGAGCCAAGCUUCGGCGCCUGCGCCGAUGGAGGUGUAGUGACUAGACGGCACCCACCUAAGGCCAACGGUAUGGUGAAGGCAUAGUCGAGGGAGGGGCGAAAGUCACACAAACCGG [C82A A111G A120U A145C C150G C169G U176G], for which the reverse-splicing fitness amounted to 0.00217.
For the variant GUGCCUUGCGCCGGGAAACCACGCAAGGGAUGGUGUCAAAUUCGGCGAAACCUAAGCGCCCGCCCGGGCGUAUGGCAACGCAGAGCCAAGCUUCGGCGCCUGCGCCGAUGGAGGUGUAGUGACUAGACGGCACCCACCUAAGGCCAACGGUAUGGUGAAGGCAUAGUCGAGGGAGCGGCGAAAGUCACACAAACCGG [C82A A111G A120U A145C C150G C169G U176C], the reverse-splicing fitness is 0.00289.
GUGCCUUGCGCCGGGAAACCACGCAAGGGAUGGUGUCAAAUUCGGCGAAACCUAAGCGCCCGCCCGGGCGUAUGGCAACGCAGAGCCAAGCUUCGGCGCCUGCGCCGAUGGAGGUGUAGUGACUAGACGGCACCCACCUAAGGCCAACGGUAUGGUGAAGGCAUAGUCGAGGGAGAGGCGAAAGUCACACAAACCGG [C82A A111G A120U A145C C150G C169G U176A]: the reverse-splicing fitness amounted to 0.00289.
